Patent EP3440111B1 (Fondazione Luigi Maria Monti, dated 2023)

Tests used:
[1] = molecular target: T1, chimeric protein rhVEGFR-1/Fc (human, UniProt P17948 27-758); assay: Western blotting
T1 construct: extracellular domain;domain: Fc region; Bought from R&D Systems; also called sVEGFR-1/Fc; not shown: Fc region of human immunoglobulins

[2] = molecular target: T2, sVEGFR-1 (soluble VEGFR-1) (Homo sapiens (Human), UniProt P17948 27-656); assay: ELISA on plates coated with a soluble form of VEGFR-1
T2 construct: Bought from RELIATech; also called soluble form of VEGFR-1
T2 sequence (P17948 other isoform, or with tags, fused parts or gaps limits assumed): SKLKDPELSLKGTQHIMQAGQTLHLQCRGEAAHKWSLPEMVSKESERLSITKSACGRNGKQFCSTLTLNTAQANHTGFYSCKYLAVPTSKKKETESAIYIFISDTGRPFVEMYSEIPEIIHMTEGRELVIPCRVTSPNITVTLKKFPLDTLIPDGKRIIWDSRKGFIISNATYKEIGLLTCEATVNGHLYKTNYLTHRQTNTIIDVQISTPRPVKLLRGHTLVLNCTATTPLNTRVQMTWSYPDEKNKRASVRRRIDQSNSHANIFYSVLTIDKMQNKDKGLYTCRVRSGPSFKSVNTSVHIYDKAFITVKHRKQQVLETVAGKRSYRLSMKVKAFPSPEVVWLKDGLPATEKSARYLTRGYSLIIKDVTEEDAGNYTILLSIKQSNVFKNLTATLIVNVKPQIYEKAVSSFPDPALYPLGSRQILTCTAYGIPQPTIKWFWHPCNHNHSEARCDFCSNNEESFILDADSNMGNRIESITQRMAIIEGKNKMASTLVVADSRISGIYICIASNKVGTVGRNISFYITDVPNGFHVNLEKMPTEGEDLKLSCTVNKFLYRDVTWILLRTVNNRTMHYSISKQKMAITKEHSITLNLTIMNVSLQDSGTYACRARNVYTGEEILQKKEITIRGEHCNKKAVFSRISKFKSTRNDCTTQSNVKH

T1 sequence (P17948 27-758, stated change not applied): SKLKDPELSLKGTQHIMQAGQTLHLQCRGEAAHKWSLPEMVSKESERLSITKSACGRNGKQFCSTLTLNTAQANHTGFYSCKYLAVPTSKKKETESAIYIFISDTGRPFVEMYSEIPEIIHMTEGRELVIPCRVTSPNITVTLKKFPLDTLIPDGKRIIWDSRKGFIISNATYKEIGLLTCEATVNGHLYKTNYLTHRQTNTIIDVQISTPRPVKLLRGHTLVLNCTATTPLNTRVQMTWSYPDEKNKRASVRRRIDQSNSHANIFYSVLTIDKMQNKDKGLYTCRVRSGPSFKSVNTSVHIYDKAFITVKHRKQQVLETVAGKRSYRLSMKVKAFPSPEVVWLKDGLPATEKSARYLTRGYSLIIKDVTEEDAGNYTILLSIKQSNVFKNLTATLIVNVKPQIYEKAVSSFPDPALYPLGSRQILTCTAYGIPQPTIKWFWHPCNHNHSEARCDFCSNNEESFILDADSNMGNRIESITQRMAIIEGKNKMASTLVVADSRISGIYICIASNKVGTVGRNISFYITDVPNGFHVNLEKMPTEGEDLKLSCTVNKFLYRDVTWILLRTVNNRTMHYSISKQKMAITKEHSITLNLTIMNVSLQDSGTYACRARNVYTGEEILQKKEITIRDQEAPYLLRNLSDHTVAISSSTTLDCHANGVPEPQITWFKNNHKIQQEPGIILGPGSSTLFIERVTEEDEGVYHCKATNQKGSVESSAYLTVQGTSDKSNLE

B1: monoclonal antibody D16F7 (antibody, V domains shown)
VH: QVQLQQPGSELVRPGASVKLSCKASGYIFTNYWMHWVKQRPGQGLEWIGEIYPRNGNTNYDEKFKGKATLTIDTSSSTAYMQLSSLTSEDSAVYYCATYLGDYWGQGTTLTVSS
VL: DVLMTQTPLSLPVSLGDQASISCRSSQSIVHSNGNTYLEWFLQKPGQSPKLLIYKVSNRFSGIPDRFSGSGSGTDFTLKISRVEAEDLGVYFCFQGSHVPYTFGGGTKLEIK
notes: Mouse IgG1 from a hybridoma (BALB/c mice immunized with peptide A4 as a MAP); also called D16F7 mAb; mAbD16F7
[1]
  binding result: binds
[2]
  binding result: binds
